From patent publication US20230226096A1 (Orna Therapeutics, Inc., priority 2020, published 2023)

system: HEK293 cells; assay type: cell-based, human; conditions: luminescence from secreted Gluc in supernatant 24 hours after transfection of HEK293 cells; circular RNA encoding Gluc with the named IRES (UTR truncated to 675 nt)

Row | Molecule | Expression
1 | Cosavirus D1 (nucleic acid, listed as Cosavirus sp.) DNA: CGTGCTTTACACGGTTTTTGAACCCCACACCGGCTGTTTGGCGCTTGCAGGACAGTAGGTATATTTTCTTTCATTTCTCTTTTCTAGCCGCGTAGGTTCTATCTACGCGGGCGGAGTGATACTCCCGCTCCTTCTTGGACAGGCGGCCTCCACGCTCTTTGTGGATCTTAAGGCTGCCAAGTCACTGGTGTTTGAAGTGAAGAATGGAGAGACACTAGGGCGTTTCATGTGGCTTTGCCAGGGATTGTAGCGATGCTGTGTGTGTGTGCGGATTTCCCCTCGTGGCGACACGAGCCTCACAGGCCAAAAGCCCTGTCCGAAAGGACCCACACAGTGGGGTTGCCCCGACCCCTCCCTTCAAAGCTTTGTGTAAACAAACTTTTGTTTAGACTTTCTTAAGCTTCTCTCACATCAGGCCCCAAAGATGTCCTGAAGGTACCCTGTGTATCTGAGGATGAGCACCACCAACTACCCGGACTTGTGGGACGTGTCCCACAGACGCATGTGGTATTCCAGCCCCCTCCTTTTGAGGAGGGGGCTTTTGCTCGCTCAGCACAGGATCTGATCAGGAGATTCATCTCTGGTGCTTTACACCAGAGCATGGATTTAAAAATTGCCCAAGGCCTGGCAAACAACCTAGGGGACTAGGTTTTCTCTATTTTAAAAGATGTCAAT | 2.11E+06
2 | EMCV2 RD1338 (nucleic acid) DNA: AAATACTGGTCGAAACCGCTTGGGATAAGACCGGGGTTTGTTAATGTCTCAATGTTATTCTCCACCCAATTGACGTCTTTTGTCAATTGGAGGGCAGTGAAACCTTGCCCTTGCTTCTTGCAGAGGATTCCCAGTGGTCTTTCCGCTCTCGACAAGGGAATTCATGATCCACCAAAAGTTGTGAAGAGAGCAGGTCCCATGGAAGCTTTCTGACGACTGATGATGACTGTAGCGACCCTTTGCAGGCAGCGGACCCCCCCACCTGGTGACAGGTGCCTCTGCGGCCAAAAGCCACGTGTTTAACAGACACCTGCAAAGGCGGCACAACCCCAGTGCCTCATCAAAAGTCTGATGACTGTGGAAATAGTCAACCGGCTTTTCTTAAGCAAATTTGGTGTCGGGGCTGAAGGATGCCCGGAAGGTACCACACTGGTTGTGATCTGATCCGGGGCCACAGTACATGTGCTTTACACATGTAGCTGCGGTTAAAAAACGTCTAGGCCCCCCGAACCACGGGGACGTGGTTTTCCTTTGAAAACCACGATTACAAT | 1.97E+06
3 | VHEV (nucleic acid) DNA: AATTCCTTCTTCCTTTCTCCTTGGACCTCGGTCCCCCGGTCTAAGCCGCTCGGAATATGACAGGGTTATTTTCACCTCTTCTCTCTTCTACTTCATAGTGTTCTATACTATGAAAGGGTATGTGTCGCCCCTTCCTTCTTGGAGAACGTGCGTGGCGGTCTTTCCGTCTCTCGAAAAACGTGCGTGCGACATGCAGAGTAACGCAAAGAAAGCAGTTCTTGGTCTAGCTCTGGTGCCCACAAGAAAACAGCTGTAGCGACCACACAAAGGCAGCGGAAACCCCCTCCTGGTAACAGGAGCCTCTGCGGCCAAAAGCCACGTGGATAAGATCCACCTTTGTGTGCGGTGCAACCCCAGCACCCTGGTTTCTTGGTGACACCTTAGTGAACCCTCGAATGGCAATCTCAAGCGCCTCTGTAGGAAAGCCAAGAATGTCCAGGAGGTACCCCTTCCTCATGGAGGGATCTGACCTGGAGACACATCACACGTGCTATACACTTGTGCTTGTGTTTAAAAATTGTCACAGCTTTCCCAAACCAAGTGGTCTTGGTTTTCCCTTAACTTCGAAAAGTCACTATGGCCTGCAAACATGGATACCCAGACGTGTGCCCT | 1.74E+08
4 | TRV NGS910 (nucleic acid) DNA: ATGCGACGTGGTTGGAGATTAAACCGACTCCGACGAAAGTGCTATCATGCCTCCCCGATTATGTGATGTTTTCTGCCCTGCTGGGCGGAGCATTCTCGGGTTGATACACCTTGAATCCTTCATCCTTGGACCTCAGGTCCCCCGGTCTAAGCCGCTTGGAATACGACAGGGTTATTTTCCAATCTTCTCCTTTCTACTTTCATGAGTCCTATTCATGAAAAGGGTCTGTGCTGCCCCTTCCTTCTTGGAGAATCTGCGCGGCGGTCTTTCCGTCTCTCGAAAAGCGCAGATGCAGCATGCTGGAACCGGTGAAGAAAACAGTTCTTTGTGGAAACTTAGAGCAGACATCGAAACAGCTGTAGTGACCTCACAGTAGCAGCGGAACCCCCTCCTGGTAACAGGAGCCTCTGCGGCCAAAAGCCCCGTGGATAAGATCCACTGCTGTGAGCGGTGCAACCCCAGCACCCTGGTTCGATGGTTGTTCTCTGTGGAACCAGAGAATGGTCTTTCTCAAGCCCTCCAGTAGAGAAGCCAAGAATGTCCTGAAGGTACCCCGCATGCGGGATCTGATCAGGAGACCAATCGTCAGTGCTTTACACTGGCGCTTTGGTTTAAAAACTGTCACAGCTTCTCCAAACCAAGTGGTCTTGGTTTTCACTTTTATCAAACTGTTTC | 3.84E+07
5 | SAV P-113 (nucleic acid) DNA: GGAGATCTAAGTCAACCGACTCCGACGAAACTACCATCATGCCTCCCCGATTATGTGATGCTTTCTGCCCTGCTGGGTGGAGCATCCTCGGGTTGAGAAAACCTTCTTCCTTTTTCCTTGGACCCCGGTCCCCCGGTCTAAGCCGCTTGGAATAAGACAGGGTTATCTTCACCTCTTCCTTCTTCTACTTCATAGTGTTCTATACTATGAAAGGGTATGTGTCGCCCCTTCCTTCTTTGGAGAACACGCGCGGCGGTCTTTCCGTCTCTCGAAAAGCGCGTGTGCGACATGCAGAGAACCGTGAAGAAAGCAGTTTGCGGACTAGCTTTAGTGCCCACAAGAAAACAGCTGTAGCGACCACACAAAGGCAGCGGACCCCCCCTCCTGGCAACAGGAGCCTCTGCGGCCAAAAGCCACGTGGATAAGATCCACCTTTGTGTGCGGCACAACCCCAGTGCCCTGGTTTCTTGGTGACACTTCAGTGAAAACGCAAATGGCGATCTGAAGCGCCTCTGTAGGAAAGCCAAGAATGTCCAGGAGGTACCCCTTCCCTCGGGAAGGGATCTGACCTGGAGACACATCACATGTGCTTTACACCTGTGCTTGTGTTTAAAAATTGTCACAGCTTTCCCAAACCAAGTGGTCTTGGTTTTCACTCTTTAAACTGATTTCACT | 4.37E+07
6 | EMCV1 AnrB-3741 (nucleic acid) DNA: ATGTGGTCGAAGCCACTTGGAATAAGACCGGCGTGCGCTTGTCTATATGTTACTTCCACCACATTGCCGTCTTTTGGCAATGTGAGGGCCCGGAACCTGGCCCTGTCTTCTTGACGAACATTCCTAGGGGACTTTCCCCTCTCGCCAAAGGAATGTAAGGTCTGTTGAATGTCGTGAAGGAAGCAGTTCCTCTGGAAGCTTCTTGAAGACAAACAGCGTCTGTAGCGACCCTTTGCAGGCAGCGGAACCCCCCACCTGGTAACAGGTGCCTCTGCGGCCGAAAGCCACGTGTATAAGATACACCTGCAAAGGCGGCACAACCCCAGTGCCACGTTGTGCGTTGGATAGTTGTGGAAAGAGTCAAATGGCTTTCCCCAAGCGTATTCAACAAGGGGCTGAAGGATGCCCAGAAGGTACCCCACTGGTTGGGATCTGATCTGGGGCCTCGGTGCAGGTGCTTTACACCTGTTGAGTCGAGGTTAAAAAACGTCTAGGCCCCCCGAACCACGGGGACGTGGTTTTCCTAGAAAACCACTATGACAAT | 2.55E+06
